Measured values from paper PMC2114603.

Target: lymphoma 4.1-like protein (68/65-kD phosphoprotein doublet) of mouse T-lymphoma cells (mouse (endogenous in BW 5147))
Assay: co-sedimentation
Settings: scale: gp 25 per 68/65-kD protein

Chain of lymphoma 4.1-like protein (68/65-kD phosphoprotein doublet) of mouse T-lymphoma cells (mouse (endogenous in BW 5147)) (P48193 whole entry): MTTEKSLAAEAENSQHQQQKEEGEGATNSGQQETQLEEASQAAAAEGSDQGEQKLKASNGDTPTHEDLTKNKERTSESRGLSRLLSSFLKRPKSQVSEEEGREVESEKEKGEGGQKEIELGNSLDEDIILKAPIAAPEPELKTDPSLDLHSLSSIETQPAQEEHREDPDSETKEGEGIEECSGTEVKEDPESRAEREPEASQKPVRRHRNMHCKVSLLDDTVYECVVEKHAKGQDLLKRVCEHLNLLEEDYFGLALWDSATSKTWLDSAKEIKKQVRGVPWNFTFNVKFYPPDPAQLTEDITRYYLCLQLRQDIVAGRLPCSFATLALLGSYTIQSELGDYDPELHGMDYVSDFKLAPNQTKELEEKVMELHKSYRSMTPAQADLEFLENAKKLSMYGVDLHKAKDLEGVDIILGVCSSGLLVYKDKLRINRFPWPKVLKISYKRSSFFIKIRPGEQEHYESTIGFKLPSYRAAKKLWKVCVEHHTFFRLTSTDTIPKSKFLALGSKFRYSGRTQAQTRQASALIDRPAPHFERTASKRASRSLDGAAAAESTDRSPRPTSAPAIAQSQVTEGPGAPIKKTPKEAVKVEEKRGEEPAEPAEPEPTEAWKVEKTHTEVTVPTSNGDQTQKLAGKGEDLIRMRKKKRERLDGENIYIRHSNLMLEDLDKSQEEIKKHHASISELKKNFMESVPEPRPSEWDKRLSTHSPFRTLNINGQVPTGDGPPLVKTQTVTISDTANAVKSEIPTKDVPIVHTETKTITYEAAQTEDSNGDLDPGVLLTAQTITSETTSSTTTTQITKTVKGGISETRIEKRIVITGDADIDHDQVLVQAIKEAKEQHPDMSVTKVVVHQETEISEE

B1: Thy-1 glycoprotein (gp 25) of mouse T-lymphoma cells (natural protein)
chain: QKVTSLTACLVNQNLRLDCRHENNTKDNSIQHEFSLTREKRKHVLSGTLGIPEHTYRSRVTLSNQPYIKVLTLANFTTKDEGDYFCELQVSGANPMSSNKSISVYRDKLVKC
modifications: glycoprotein ([3H]glucosamine-labelled); 125I-labelled or unlabelled
For B1, the stoichiometry N was 4.
